Test results reported in the Human Domainome abundance scans (Beltran et al. 2025).
± gives the uncertainty stated by the source.

B1: Homeobox protein cut-like 1, residues 548 to 629; numbered along this chain, P39880 (parent)
chain: GEEMDTAEIARQVKEQLIKHNIGQRIFGHYVLGLSQGSVSEILARPKPWNKLTVRGKEPFHKMKQFLSDEQNILALRSIQGR

Variants of: B1
Experiment: abundance fitness (aPCA) (normalised: wild type 0, dead -1); higher = more abundant; growth selection in yeast, the domain comes from the species named
Details: Homo sapiens

Variant | abundance fitness
GEEMDTAEIARQVKEQLIKHNIGQRIFGHYVLGLSQGSVSEILARPKPWNKQTVRGKEPFHKMKQFLSDEQNILALRSIQGR [L52Q] | -0.825 ± 0.11
GEEMDTAEIARQVKEQLIKHNIGQRIFGHYVLGLSQGSVSEILARPKPWNKRTVRGKEPFHKMKQFLSDEQNILALRSIQGR [L52R] | -1.1 ± 0.097
GEEMDTAEIARQVKEQLIKHNIGQRIFGHYVLGLSQGSVSEILARPKPWNKSTVRGKEPFHKMKQFLSDEQNILALRSIQGR [L52S] | -0.97 ± 0.082
GEEMDTAEIARQVKEQLIKHNIGQRIFGHYVLGLSQGSVSEILARPKPWNKTTVRGKEPFHKMKQFLSDEQNILALRSIQGR [L52T] | -0.99 ± 0.2
GEEMDTAEIARQVKEQLIKHNIGQRIFGHYVLGLSQGSVSEILARPKPWNKVTVRGKEPFHKMKQFLSDEQNILALRSIQGR [L52V] | -0.879 ± 0.07
GEEMDTAEIARQVKEQLIKHNIGQRIFGHYVLGLSQGSVSEILARPKPWNKYTVRGKEPFHKMKQFLSDEQNILALRSIQGR [L52Y] | -0.602 ± 0.078
GEEMDTAEIARQVKEQLIKHNIGQRIFGHYVLGLSQGSVSEILARPKPWNKLAVRGKEPFHKMKQFLSDEQNILALRSIQGR [T53A] | -0.341 ± 0.049
GEEMDTAEIARQVKEQLIKHNIGQRIFGHYVLGLSQGSVSEILARPKPWNKLDVRGKEPFHKMKQFLSDEQNILALRSIQGR [T53D] | 0.116 ± 0.054
GEEMDTAEIARQVKEQLIKHNIGQRIFGHYVLGLSQGSVSEILARPKPWNKLEVRGKEPFHKMKQFLSDEQNILALRSIQGR [T53E] | -0.251 ± 0.059
GEEMDTAEIARQVKEQLIKHNIGQRIFGHYVLGLSQGSVSEILARPKPWNKLFVRGKEPFHKMKQFLSDEQNILALRSIQGR [T53F] | -0.55 ± 0.069
GEEMDTAEIARQVKEQLIKHNIGQRIFGHYVLGLSQGSVSEILARPKPWNKLGVRGKEPFHKMKQFLSDEQNILALRSIQGR [T53G] | -0.032 ± 0.046
GEEMDTAEIARQVKEQLIKHNIGQRIFGHYVLGLSQGSVSEILARPKPWNKLHVRGKEPFHKMKQFLSDEQNILALRSIQGR [T53H] | -0.432 ± 0.062
GEEMDTAEIARQVKEQLIKHNIGQRIFGHYVLGLSQGSVSEILARPKPWNKLIVRGKEPFHKMKQFLSDEQNILALRSIQGR [T53I] | -0.521 ± 0.069
GEEMDTAEIARQVKEQLIKHNIGQRIFGHYVLGLSQGSVSEILARPKPWNKLKVRGKEPFHKMKQFLSDEQNILALRSIQGR [T53K] | -0.686 ± 0.096
GEEMDTAEIARQVKEQLIKHNIGQRIFGHYVLGLSQGSVSEILARPKPWNKLMVRGKEPFHKMKQFLSDEQNILALRSIQGR [T53M] | -0.45 ± 0.059
GEEMDTAEIARQVKEQLIKHNIGQRIFGHYVLGLSQGSVSEILARPKPWNKLNVRGKEPFHKMKQFLSDEQNILALRSIQGR [T53N] | -0.077 ± 0.047
GEEMDTAEIARQVKEQLIKHNIGQRIFGHYVLGLSQGSVSEILARPKPWNKLPVRGKEPFHKMKQFLSDEQNILALRSIQGR [T53P] | -0.254 ± 0.046

Variant | abundance fitness
GEEMDTAEIARQVKEQLIKHNIGQRIFGHYVLGLSQGSVSEILARPKPWNKLQVRGKEPFHKMKQFLSDEQNILALRSIQGR [T53Q] | -0.369 ± 0.064
GEEMDTAEIARQVKEQLIKHNIGQRIFGHYVLGLSQGSVSEILARPKPWNKLRVRGKEPFHKMKQFLSDEQNILALRSIQGR [T53R] | -0.767 ± 0.064
GEEMDTAEIARQVKEQLIKHNIGQRIFGHYVLGLSQGSVSEILARPKPWNKLSVRGKEPFHKMKQFLSDEQNILALRSIQGR [T53S] | 0.049 ± 0.033
GEEMDTAEIARQVKEQLIKHNIGQRIFGHYVLGLSQGSVSEILARPKPWNKLVVRGKEPFHKMKQFLSDEQNILALRSIQGR [T53V] | -0.671 ± 0.059
GEEMDTAEIARQVKEQLIKHNIGQRIFGHYVLGLSQGSVSEILARPKPWNKLWVRGKEPFHKMKQFLSDEQNILALRSIQGR [T53W] | -0.566 ± 0.066
GEEMDTAEIARQVKEQLIKHNIGQRIFGHYVLGLSQGSVSEILARPKPWNKLYVRGKEPFHKMKQFLSDEQNILALRSIQGR [T53Y] | -0.821 ± 0.13
GEEMDTAEIARQVKEQLIKHNIGQRIFGHYVLGLSQGSVSEILARPKPWNKLTARGKEPFHKMKQFLSDEQNILALRSIQGR [V54A] | 0.066 ± 0.032
GEEMDTAEIARQVKEQLIKHNIGQRIFGHYVLGLSQGSVSEILARPKPWNKLTCRGKEPFHKMKQFLSDEQNILALRSIQGR [V54C] | -0.063 ± 0.051
GEEMDTAEIARQVKEQLIKHNIGQRIFGHYVLGLSQGSVSEILARPKPWNKLTDRGKEPFHKMKQFLSDEQNILALRSIQGR [V54D] | 0.052 ± 0.047
GEEMDTAEIARQVKEQLIKHNIGQRIFGHYVLGLSQGSVSEILARPKPWNKLTERGKEPFHKMKQFLSDEQNILALRSIQGR [V54E] | 0.136 ± 0.06
GEEMDTAEIARQVKEQLIKHNIGQRIFGHYVLGLSQGSVSEILARPKPWNKLTFRGKEPFHKMKQFLSDEQNILALRSIQGR [V54F] | -0.094 ± 0.051
GEEMDTAEIARQVKEQLIKHNIGQRIFGHYVLGLSQGSVSEILARPKPWNKLTGRGKEPFHKMKQFLSDEQNILALRSIQGR [V54G] | -0.04 ± 0.042
GEEMDTAEIARQVKEQLIKHNIGQRIFGHYVLGLSQGSVSEILARPKPWNKLTIRGKEPFHKMKQFLSDEQNILALRSIQGR [V54I] | -0.001 ± 0.039
GEEMDTAEIARQVKEQLIKHNIGQRIFGHYVLGLSQGSVSEILARPKPWNKLTKRGKEPFHKMKQFLSDEQNILALRSIQGR [V54K] | 0.058 ± 0.057
GEEMDTAEIARQVKEQLIKHNIGQRIFGHYVLGLSQGSVSEILARPKPWNKLTLRGKEPFHKMKQFLSDEQNILALRSIQGR [V54L] | 0.028 ± 0.036
GEEMDTAEIARQVKEQLIKHNIGQRIFGHYVLGLSQGSVSEILARPKPWNKLTMRGKEPFHKMKQFLSDEQNILALRSIQGR [V54M] | 0.119 ± 0.056
GEEMDTAEIARQVKEQLIKHNIGQRIFGHYVLGLSQGSVSEILARPKPWNKLTNRGKEPFHKMKQFLSDEQNILALRSIQGR [V54N] | 0.08 ± 0.049
